Results from EP4785962A1, “ANTIBODY-DRUG CONJUGATE TARGETING TROP2, AND PREPARATION METHOD AND USE THEREFOR” (priority 2023, dated 2025).
Positions count from the first letter of the chain named. Each block holds one molecule with its values, some of them ahead of it.

Columns and labels:
[1] = molecular target: human TROP2 protein on the surface of FaDu cells (human) (UniProt P09758); assay: flow cytometry on FaDu cells, fluorescent secondary antibody
[2] = molecular target: Recombinant human TROP2 protein (Sino Biological) (human) (UniProt P09758); assay: BLI (Octet Red96e), antibody on AHC sensor, antigen 100 nM
[3] = molecular target: Rhesus Monkey Trop2 protein (Sino Biological 90893-C08H) (rhesus monkey); assay: as above
[4] = tested on: Human gastric cancer cell line NCI-N87; assay: Mouse xenograft tumor model NCI-N87; type: in vivo, immunodeficient mice CB17-SCID; conditions: intraperitoneal injection
Description: • 1. Mice: immunodeficient mice CB17-SCID (Vital River) aged 6-8 weeks were placed in an SPF experimental environment for 3-5 days before the experiment to better adapt to the current living environment. In all experiments, the long and short diameters of the tumor were measured twice a week using a vernier caliper, and the tumor volume (mm^3) was calculated from the measured data. The calculation formula is as follows: Tumor volume(mm^3) = 0.5 × long diameter(mm) × short diameter(mm) × short diameter(mm) [formula] • 2. Human gastric cancer cell line NCI-N87 (ATCC) cells were resuspended in 1× PBS (Gibco, 10010049) at an appropriate concentration, and the tumor cells were implanted subcutaneously in the right abdomen of the mice at an inoculation amount of 2×10^6 /mouse. When the tumor volume reached 150-200 mm^3, the mice were divided into groups such that the average initial administration volume of each group was substantially the same. After grouping, different doses of antibody-drug conjugates hRs7-DXd, hRS7-MB3 and hTINA1-DXd, or control-drug conjugates IgG-MB3, IgG-DXd and IgG control were administered by intraperitoneal injection. […] Compared with hRS7-DXd, hRS7-MB3 has a stronger tumor inhibitory effect. […] Non-small cell lung cancer cell line HCC827 cells purchased from ATCC were inoculated subcutaneously into mice (2×10^6 /mouse), and when the tumor volume reached 120-150 mm^3, the mice were grouped and administered. Different doses of the antibody-drug conjugate and the control drug were intraperitoneally injected into the mice, and the administration was performed only once throughout the experiment. The growth status of the mice was observed, and the changes in tumor volume of the mice were measured. […] The lung squamous cell carcinoma cell line LK-2 (CBP60105) purchased from Nanjing Cobioer Biosciences was implanted subcutaneously in the right abdomen of the mice at an inoculation amount of 3 × 10 ^6 cells/mouse. When the tumor volume reached 150-200 mm^3, the mice were divided into groups such that the average initial administration volume of each group was substantially the same. The mice were administered only once throughout the experiment and injected intraperitoneally at a dose of 10 mg/kg. IgG-MB3 or IgG-DXd was used as a negative control. It was observed that two TROP2-targeted ADCs were also able to delay tumor growth in a tumor model with relatively low TROP2 expression (FIG. 7). […] The pancreatic cancer cell line BxPC3 cells purchased from ATCC were implanted subcutaneously in the right abdomen of the mice at an inoculation amount of 3 × 10 ^6 cells/mouse. […]

[5] = tested on: human pancreatic cancer cell line BxPC-3; assay: In vitro cytotoxicity test, BxPC3 cells, 6 days; type: cell-based; conditions: BxPC3, 6 days of culture
Description: (§1) 10% FBS (SH30406.05, HYCLONE) was added to RPMI 1640 (22400-071, Gibco), and the mixture was mixed well to prepare a BxPC3 cell (ATCC) growth medium. BxPC3 or FaDu cells were adjusted to a concentration of 50000 cells/mL with a growth medium, seeded into a 96-well white-bottom plate (167008, NUNC) at 50 µL per well (2500 cells/well), and incubated overnight in an incubator at 37 °C. The antibody was diluted with growth medium and serially diluted 5-fold from 200 nM (2×) to obtain 9 gradients, with the final concentration being […]. The diluted antibody-drug conjugate or control was added at 50 µL/well, and the total volume was 100 µL. […] The cell pellet was fully lysed by shaking on a plate shaker for 5 min, and the luminescence signal was stabilized by standing at room temperature for 10 min. The culture plate was tested on a microplate reader (spectra MAX i3x, Molecular Divices), the […] were taken, and the cell viability was calculated. […]
(§2) The cell proliferation inhibition rate after 6 days of culture was calculated using the following formula.
(§3) Cell proliferation inhibition rate (%) = […], where a: the average value of experimental sample-added wells after 6 days of culture; b: the average value of control medium-added wells after 6 days of culture. The data were fitted by GraphPad Prism and the IC50 of the drug was calculated (Table 4).

[6] = Days 1 and 8/every 21 days for 4 cycles; EMEA/H/C/005182/0000; cited from earlier work
[7] = mouse, in vivo, 10 mg/kg; cited from earlier work
[8] = tested on: drug-resistant triple-negative breast cancer (TNBC); conditions: patients with drug-resistant triple-negative breast cancer (TNBC); cited from earlier work
[9] = tested on: human hypopharyngeal carcinoma squamous cell line FaDu; assay: In vitro cytotoxicity test, FaDu cells, 6 days; type: cell-based; conditions: 6 days of culture
Description: as §1, §2, §3

[10] = molecular target: T1, human TROP2 protein on the surface of FaDu cells (human, UniProt P09758 27-323); assay: flow cytometry on FaDu cells, fluorescent secondary antibody
T1 construct: whole, on cells; also called TROP2 protein on cell surface; human TROP2 protein at the cellular level
T1 sequence (looked up): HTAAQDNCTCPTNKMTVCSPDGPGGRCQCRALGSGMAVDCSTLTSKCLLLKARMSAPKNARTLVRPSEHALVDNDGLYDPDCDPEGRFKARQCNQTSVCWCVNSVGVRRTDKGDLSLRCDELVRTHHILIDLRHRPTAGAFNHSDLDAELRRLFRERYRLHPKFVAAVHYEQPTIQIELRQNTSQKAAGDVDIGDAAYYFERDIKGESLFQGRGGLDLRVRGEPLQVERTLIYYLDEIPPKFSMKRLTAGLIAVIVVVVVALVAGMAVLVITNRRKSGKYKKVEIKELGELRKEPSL

[11] = molecular target: T2, rat TROP2 (Sino Biological 86246-R08H) (rat, UniProt A0ABK0L8S5 21-268); assay: BLI (Octet Red96e), antibody on AHC sensor, antigen in solution
T2 construct: Bought recombinant protein
T2 sequence: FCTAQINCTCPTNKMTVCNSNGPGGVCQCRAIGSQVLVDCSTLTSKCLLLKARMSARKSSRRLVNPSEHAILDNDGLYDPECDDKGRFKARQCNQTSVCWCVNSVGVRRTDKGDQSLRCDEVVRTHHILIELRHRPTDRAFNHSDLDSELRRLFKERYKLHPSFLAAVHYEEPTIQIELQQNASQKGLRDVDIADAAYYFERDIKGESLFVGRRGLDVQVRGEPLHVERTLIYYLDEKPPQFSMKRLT

[12] = molecular target: T3, mouse TROP2 (Sino Biological 50922-M08H) (mouse, UniProt Q8BGV3 25-270); assay: as above
T3 construct: Bought recombinant protein
T3 sequence (looked up): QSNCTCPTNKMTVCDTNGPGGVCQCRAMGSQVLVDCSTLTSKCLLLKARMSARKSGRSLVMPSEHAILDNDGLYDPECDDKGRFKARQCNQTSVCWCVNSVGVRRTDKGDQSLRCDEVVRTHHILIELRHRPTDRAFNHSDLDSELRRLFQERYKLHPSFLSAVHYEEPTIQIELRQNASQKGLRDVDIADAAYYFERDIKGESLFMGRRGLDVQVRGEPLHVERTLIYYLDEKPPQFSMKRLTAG

[13] = molecular target: T4, Rhesus Monkey Trop2 protein (Sino Biological 90893-C08H) (rhesus monkey, UniProt A0A5F8AGB8 27-274); assay: BLI (Octet Red96e), antibody on AHC sensor, antigen 100 nM
T4 construct: Bought recombinant protein
T4 sequence: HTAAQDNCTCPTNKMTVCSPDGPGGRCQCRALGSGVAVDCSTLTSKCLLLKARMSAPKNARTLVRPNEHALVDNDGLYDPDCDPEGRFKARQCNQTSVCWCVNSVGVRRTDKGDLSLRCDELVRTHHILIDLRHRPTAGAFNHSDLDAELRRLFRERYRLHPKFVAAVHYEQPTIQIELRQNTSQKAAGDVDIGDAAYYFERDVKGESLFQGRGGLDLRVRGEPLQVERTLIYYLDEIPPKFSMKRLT

[14] = molecular target: T5, Recombinant human TROP2 protein (Sino Biological) (human, UniProt P09758 27-274); assay: as above
T5 construct: Bought recombinant protein; The two paragraphs give different catalogue numbers; also called TACSTD2
T5 sequence (looked up): T4 sequence with V36M, N67S, V204I

- EC50 [1]: 1.7 nM
- Kd [2]: 22.8 nM
- Response [2]: 0.284
- koff [2]: 0.0035 s⁻¹
- kon [2]: 154000 M⁻¹ s⁻¹
- Kd [3]: 32.5 nM
- Response [3]: 0.21
- koff [3]: 0.00356 s⁻¹
- kon [3]: 110000 M⁻¹ s⁻¹
Molecule: hTINA1 (the antibody used in Ds-1062), positive control antibody

Molecule: hRS7-DXd: antibody hRS7 conjugated with Linker-DXd, average DAR 4.4 [reference compound]
- tumor inhibitory effect ([4]; high-dose group (3 mg/kg)): comparable tumor inhibitory effects
- tumor inhibitory effect ([4]; low dose (1 mg/kg), compared with IgG-MB3 and IgG-DXd): a certain degree of tumor inhibitory effect

Molecule: Trodelvy [reference compound]
- IC50 [5]: 0.42 nM
- HNSTD [6]: 50 mg/kg
- half-life in mice [7]: 11 h
- objective response rate (ORR) [8]: 33%
- IC50 [9]: 0.53 nM

- EC50 [10]: 1.58 nM
- binding result [11]: no binding (tested: 100 nM)
- binding result [12]: no binding (tested: 100 nM)
- Kd [13]: 7.75 nM
- koff [13]: 0.000823 s⁻¹
- kon [13]: 106000 M⁻¹ s⁻¹
- Kd [14]: 4.52 nM
- koff [14]: 0.00056 s⁻¹
- kon [14]: 124000 M⁻¹ s⁻¹
B1: hRS7 antibody (hRS7-IgG1), humanized antibody targeting TROP2 in IgG1 form (antibody, V domains shown)
VH: QVQLQQSGSELKKPGASVKVSCKASGYTFTNYGMNWVKQAPGQGLKWMGWINTYTGEPTYTDDFKGRFAFSLDTSVSTAYLQISSLKADDTAVYFCARGGFGSSYWYFDVWGQGSLVTVSS
VL: DIQLTQSPSSLSASVGDRVSITCKASQDVSIAVAWYQQKPGKAPKLLIYSASYRYTGVPDRFSGSGSGTDFTLTISSLQPEDFAVYYCQQHYITPLTFGAGTKVEIKR
